Source: patent US20130164309A1 (RESEARCH FOUNDATION OF STATE UNIVERSITY OF NEW YORK, published 2013)

B1: truncated TCblR 32-183 (receptor)
chain: not shown
notes: Secreted C-terminal deletion of the extracellular domain, expressed in HEK293 cells, used as culture medium; also called C-terminal 49 aa deleted (two N-glycosylation sites removed)
B2: recombinant extracellular domain of human TCblR (aa 32-233), untagged secreted form (receptor)
chain: EAAASPLSTPTSAQAAGPSSGSCPPTKFQCRTSGLCVPLTWRCDRDLDCSDGSDEEECRIEPCTQKGQCPPPPGLPCPCTGVSDCSGGTDKKLRNCSRLACLAGELRCTLSDDCIPLTWRCDGHPDCPDSSDELGCGTNEILPEGDATTMGPPVTLESVTSLRNATTMGPPVTLESVPSVGNATSSSAGDQSGSPTAYGVIA
notes: Expressed in HEK 293 cells and secreted into the culture medium; also called TCblR ECD; extracellular TCblR
B7: truncated TCblR 32-149 (receptor)
chain: not shown
notes: Secreted C-terminal deletion of the extracellular domain, expressed in HEK293 cells, used as culture medium; also called aa 150-233 deleted
B8: TCblR 32-52, 64-233-mycHis (receptor, not shown: small tags and cut ends)
chain: EAAASPLSTPTSAQAAGPSSGSGLCVPLTWRCDRDLDCSDGSDEEECRIEPCTQKGQCPPPPGLPCPCTGVSDCSGGTDKKLRNCSRLACLAGELRCTLSDDCIPLTWRCDGHPDCPDSSDELGCGTNEILPEGDATTMGPPVTLESVTSLRNATTMGPPVTLESVPSVGNATSSSAGDQSGSPTAYGVIA
notes: Secreted, expressed in HEK293 cells, used as culture medium; also called p53-63del; N-terminal 11 residues (aa 53-63) of the first LDLR-A domain deleted
B11: TCblR 32-137, 166-233-mycHis (receptor, not shown: small tags and cut ends)
chain: EAAASPLSTPTSAQAAGPSSGSCPPTKFQCRTSGLCVPLTWRCDRDLDCSDGSDEEECRIEPCTQKGQCPPPPGLPCPCTGVSDCSGGTDKKLRNCSRLACLAGELGCGTNEILPEGDATTMGPPVTLESVTSLRNATTMGPPVTLESVPSVGNATSSSAGDQSGSPTAYGVIA
notes: Secreted, expressed in HEK293 cells, used as culture medium; also called second LDLR-A domain removed

What was measured:
[1] = target: T1, TC-Cbl (recombinant human transcobalamin saturated with cobalamin) (human, UniProt P20062 19-427); assay: radiolabelled TC-Cbl binding, indirect competition with full-length secreted TCblR
T1 construct: also called holo-TC; holoTc
T1 sequence (looked up): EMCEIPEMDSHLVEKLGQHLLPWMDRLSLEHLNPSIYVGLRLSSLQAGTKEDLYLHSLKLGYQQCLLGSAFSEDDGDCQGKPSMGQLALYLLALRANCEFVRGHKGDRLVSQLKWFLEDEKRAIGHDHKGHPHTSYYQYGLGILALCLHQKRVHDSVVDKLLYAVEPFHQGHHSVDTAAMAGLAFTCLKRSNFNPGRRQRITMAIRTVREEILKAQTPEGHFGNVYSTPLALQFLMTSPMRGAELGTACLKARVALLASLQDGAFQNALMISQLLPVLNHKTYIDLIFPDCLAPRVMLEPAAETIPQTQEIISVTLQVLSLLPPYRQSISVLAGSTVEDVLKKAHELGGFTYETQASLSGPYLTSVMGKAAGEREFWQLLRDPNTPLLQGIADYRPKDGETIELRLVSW

[2] = target: T1, TC-Cbl (recombinant human …); assay: radiolabelled TC-Cbl binding, WGA-agarose separation
[3] = target: T1, TC-Cbl (recombinant human …); assay: binding and internalization of TC-[57Co]Cbl by transfected HEK293 cells
[4] = target: B11; assay: sandwich ELISA, mAb as capture, TCblR construct in HEK293 medium; +++ OD 2-3, ++ OD 1-2, + OD 0.5-1, - OD <0.5
[5] = target: T2, TCblR 32-94, 142-233-mycHis (human, UniProt Q9NPF0 32-233); assay: as above
T2 construct: also called TCblR without the CUB domain; region between the two LDLR-A domains deleted

[6] = target: B8; assay: as above
[7] = target: B2; assay: as above
TCblR 32-233-mycHis = target: T3, TCblR 32-233-mycHis (human, UniProt Q9NPF0 32-233); assay: as above
T3 construct: Secreted, expressed in HEK293 cells, used as culture medium; also called extracellular TCblR in pcDNA3.1 (-) mycHisA
T3 sequence: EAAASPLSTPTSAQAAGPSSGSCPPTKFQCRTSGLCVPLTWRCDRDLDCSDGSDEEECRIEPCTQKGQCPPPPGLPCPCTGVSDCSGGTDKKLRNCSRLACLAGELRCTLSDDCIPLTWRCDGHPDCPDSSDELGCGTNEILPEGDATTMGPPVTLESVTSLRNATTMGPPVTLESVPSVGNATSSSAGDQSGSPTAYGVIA

truncated TCblR 32-183 [8] = target: B1; assay: sandwich ELISA, mAb as capture
truncated TCblR 32-149 = target: B7; assay: sandwich ELISA, mAb as capture
truncated TCblR 32-183 [9] = target: B1; assay: sandwich ELISA, mAb as capture, TCblR construct in HEK293 medium; +++ OD 2-3, ++ OD 1-2, + OD 0.5-1, - OD <0.5
[10] = target: B11; assay: sandwich ELISA, mAb as capture
[11] = target: T1, TC-Cbl (recombinant human …); assay: radiolabelled TC-Cbl binding to mutated secreted receptor
[12] = target: T1, TC-Cbl (recombinant human …); assay: radiolabelled TC-Cbl binding to deletion constructs

B1: binds [1].

B2: binds [2].

B3: TCblR with the cytoplasmic tail deleted, on HEK293 cells (receptor)
chain: EAAASPLSTPTSAQAAGPSSGSCPPTKFQCRTSGLCVPLTWRCDRDLDCSDGSDEEECRIEPCTQKGQCPPPPGLPCPCTGVSDCSGGTDKKLRNCSRLACLAGELRCTLSDDCIPLTWRCDGHPDCPDSSDELGCGTNEILPEGDATTMGPPVTLESVTSLRNATTMGPPVTLESVPSVGNATSSSAGDQSGSPTAYGVIAAAAVLSASLVTATLLLL
notes: Limits derived; also called TCblR without the cytoplasmic domain; membrane-anchored receptor
B3: binds [3].

B4: mAb 1-19 (antibody, V domains shown)
VH: DVQLQESGPGLVKPSQSLSLTCTVLGYSITSDYAWNWIRQFPGNKLEWMGYISFSGNIRYNPSLESRISITRDTSKSQFFLQLNSVTTEDRGTYYCARAGLGRVFYFDYWGQGTALTVSS
VL: DIVMSQSPSSLAVSVGEKVTMSCKSSQSLLYSSNQKNYLAWYQQKPGQSPQLLIFRASTRESGVPDRFTGSGSGTDFTLTISSVKPEDLAVYFCQQYYNYPFTFGSGTTLEIK
notes: also called TCblRKB 1-19; monoclonal antibody 1-19
B4 showed an OD [4] of 1 to 2 od, an OD [5] of 1 to 2 od and an OD [6] of 2 to 3 od. It also gave an OD [7] of 1 to 2 od, an OD (TCblR 32-233-mycHis) of 2 to 3 od and an OD (truncated TCblR 32-183 [8]) of under 0.5 od. It also gave an OD (truncated TCblR 32-149) of under 0.5 od.

B5: mAb 1-23 (antibody, V domains shown)
VH: DVQLQESGPGLVKPSQSLSLTCTVTGYSITSDYAWNWIRQFPGNKLEWMGYIAYTNRTFYTPSLESRISITRDTSKNQFFLQLNSVTTEDTGTYYCARNSGKTYGFTYWGQGTLVTVSA
VL: DIVMSQSPSSLVVSIGEKVTMSCKSSQRLLYSANQKNYLAWYQQKPGQSPKLLIYWASTRESGVPDRFTGSGSGTDFTLTISSVRAEDLALYYCQQFYNYPLTFGSGTKLEIK
B5 gave an OD [4] of 1 to 2 od, an OD [5] of 1 to 2 od and an OD [6] of 1 to 2 od. It also gave an OD [7] of 1 to 2 od, an OD (TCblR 32-233-mycHis) of 1 to 2 od and an OD (truncated TCblR 32-183 [8]) of under 0.5 od. It also gave an OD (truncated TCblR 32-149) of under 0.5 od.

B6: mAb 1-25 (antibody, V domains shown)
VH: DVQLQESGPDLVKPSQSLSITCTVTGYSITSDYSWHWIRQFPGNKLEWMGYIHSSGITNYNPSLKSRISITRDTSKNQFFLHLSSMTNEDTATYYCTRPPVVTRYFDVWGAGTTVTVSS
VL: DIVMTQSPSSLTVTAGEKVTMSCKSSQGLLDSGNQKNYLTWYQQKPGQPPKLLIYWASTRKSGVPDRFTGSGSGTDFTLTISSVQAEDLAVYYCQNDYTYPLTFGAGTKLELK
notes: also called TCblRKB1-25
Binder B6 has an OD (truncated TCblR 32-183 [9]) of 2 to 3 od, an OD [5] of 0.5 to 1 od and an OD [6] of 2 to 3 od. For the same binder, the OD [7] was 1 to 2 od, the OD (TCblR 32-233-mycHis) was 1 to 2 od and the OD [10] was under 0.5 od. The OD (truncated TCblR 32-149) was under 0.5 od.

B7: no binding [1].

B8: no binding [2].

B9: extracellular TCblR mycHis mutant pDE85, 86>LL (receptor, not shown: small tags and cut ends)
chain: EAAASPLSTPTSAQAAGPSSGSCPPTKFQCRTSGLCVPLTWRCDRDLDCSDGSLLEECRIEPCTQKGQCPPPPGLPCPCTGVSDCSGGTDKKLRNCSRLACLAGELRCTLSDDCIPLTWRCDGHPDCPDSSDELGCGTNEILPEGDATTMGPPVTLESVTSLRNATTMGPPVTLESVPSVGNATSSSAGDQSGSPTAYGVIA
notes: Made on the extracellular TCblR cDNA in pcDNA3.1 (-) mycHisA, expressed in HEK293 cells; also called D85L, E86L
B9: no binding [11].

B10: extracellular TCblR mycHis mutant pDE163, 164>LL (receptor, not shown: small tags and cut ends)
chain: EAAASPLSTPTSAQAAGPSSGSCPPTKFQCRTSGLCVPLTWRCDRDLDCSDGSDEEECRIEPCTQKGQCPPPPGLPCPCTGVSDCSGGTDKKLRNCSRLACLAGELRCTLSDDCIPLTWRCDGHPDCPDSSLLLGCGTNEILPEGDATTMGPPVTLESVTSLRNATTMGPPVTLESVPSVGNATSSSAGDQSGSPTAYGVIA
notes: Made on the extracellular TCblR cDNA in pcDNA3.1 (-) mycHisA, expressed in HEK293 cells; also called D163L, E164L
B10: no binding [11].

B11: no binding [12].
